These results are taken from US7244430.

This experiment has as its target whole inactivated rabies virus. The experiment can be described thus: phage ELISA, coated whole inactivated rabies virus.

B1: SC04-353 (scFv)
scFv: EVQLVQSGGGVVQPGRSLRLSCAASGFTFSNYAMHWVRQAPGKGLEWVAVISYDGGNKYYADSVKGRFTMSRDNSKNTLYLQMNSLRAEDTAVYYCARDFWSGYSMVDSYYYYMDVWGKGTTVTVSSGTGGSGGTGSGTGGSTETTLTQSPGTLSLSPGERATLSCRASQSVSNTFLAWYQQKPGQAPRLLIYGASSRATGIPDRFSGSGSGTDFTLTISRLEPEDFAAYYCQQYGSSLTFGPGTKVDIKR
B1: the OD 492 nm is 0.057 OD 492 nm.

B2: SC04-361 (scFv)
scFv: EVQLVQSGAEVKKPGESLKISCKASGFSFSTYWIGWVRQMPGKGLEWMGIIYPADSDTRYSPSFQGQVTISADKSISTAYLQWSSLKASDTAMYYCARLRGPYYDFWNGYRETHDAFNVWGQGTMVTVSSGTGGSGGTGSGTGGSTDVVMTQSPDSLAVSLGERATINCKSSQNILDNSDNKNFLAWYQQKPGQPPKLLIYWASARESGVPDRFSGSGSGTDFTLTISSLQAEDVALYYCQQYYNTPITFGQGTRLEIKR
B2 returned an OD 492 nm of 0.059 OD 492 nm.

B3: SC04-374 (scFv)
scFv: QVTLKESGPTLVKPTQTLTLTCTFSGFSLSTSGVGVGWIRQPPGKALEWLAVIYWNDDKLYRPSLKSRLTITKDTSKNQVVLTMTKMDPVDTATYYCAHRHRYYDISGYYRLFSDAFDIWGQGTMVTVSSGTGGSGGTGSGTGGSTQSVVTQPPSVSGAPGQRVTISCTGSSSNIGAGYDVHWYQQLPGTAPKLLIYGNSNRPSGVPDRFSGSKSGTSASLAITGLQAEDEADYYCQSYDSSLSGSVFGGGTKLTVLG
The molecule B3 gave an OD 492 nm of 0.056 OD 492 nm.
